In one series the test system is Salmonella-infected mice. Description: Salmonella-mediated cecal fibrosis in mice. Type of series: in vivo. To be noted: Salmonella model. On the procedure:
Eight-week-old male and female 129Sv/J mice (#000691, Jackson Laboratories) were administered 20 mg streptomycin via oral gavage. Twenty-four hours later, the mice were orally infected with Salmonella typhimurium SL1344 strain 1×10^8 colony-forming units by oral gavage to induce cecal fibrosis.
Origene or miR205-5p-OFF lentivrus (mm35328) or miR205-5p-OE lentivirus (mm15214) from Applied Biological Materials on day 14. Some infected mice received oral antibiotics mixture in drinking water ad libitum from day 14 to day 21 to suppress intestinal microbiota. […]
H&E and Masson Trichrome (MT) staining were performed as described previously. Microphotographs were recorded at multiple locations and scored by two investigators blindly. Intestinal injuries were scored (0-12). The severity of intestinal fibrosis was assessed by MT staining and scored (0-3). […]
Total RNA was isolated by an RNeasy kit (#74104, Qiagen) and reverse transcribed into cDNA by a high-capacity cDNA reverse transcription kit (#4368813, ThermoFisher). […] Relative mRNA/miRNA quantification was performed by comparing test groups and control groups after normalization with endogenous control genes. The fold changes are expressed as 2^ΔΔCt. […]
Overall disease activity (ODA) was calculated by % change of histology and fibrosis scores and colonic mRNA expression of fibrosis- and inflammation-related genes. […]

In the next series the test system is CD patient-derived PBMCs. The experiment in a line: Cytokine multiplex assay in serum exosome-preconditioned CD PBMCs. Conditions: CDSE-preconditioned CD PBMCs; 1 μg/ml elafin 6 hours. Type of series: cell-based, human. As for the experimental part: FIG. 30. Cytokine levels in mouse and human sera and CD-PBMCs. (A) Mouse serum cytokine levels were measured by a 23-plex multiplex assay (#M60009RDPD, Bio-Rad). n=5 mice per group. (B) Human serum cytokines were measured by a 27-plex multiplex assay (#M500KCAFOY, Bio-rad). 12 normal, 23 UC, and 43 CD patients. (C) CD patient-derived PBMCs were preconditioned with stricturing CD patient (CDS) or non-stricturing CD patient (CDNS)-derived serum exosomes for two hours, followed by exposure to either 0.1% TFA or 1 μg/ml elafin for 6 hours. The cell supernatants were collected for a 13-plex cytokine multiplex assay (HSTCMAG28SPMX13, Millipore Sigma). (D) A comparison of cytokine levels in mouse sera, human sera, and conditioned media of CDS and CDNS serum exosome-conditioned CD-PBMCs. ns=no significant difference. ND=below detection range. N/A=unavailable. Mo=monocytes. MO=macrophages, DC=dendritic cells.
CD PBMCs (#70052, […] Technologies) were cultured in RPMI1640 media containing 10% exosome-depleted fetal bovine serum (A2720803, ThermoFisher) and 1% penicillin-streptomycin. Some groups were conditioned with 100 μg/ml of human serum exosomes from either CDSE or non-stricturing CD (CDNSE) patients to mimic the CD chemical environment for two hours, followed by addition with either 0.1% TFA or 1 μg/ml elafin. […]

“Elafin: small (6 kDa) human elastase-specific protease inhibitor and antimicrobial peptide; active form SEQ ID NO: 2 (AQEPVKGPVSTKPGSCPIILIRCAMLNPPNRCLKDTDCPGIKKCCEGSCGMACFVPQ; listed as Homo sapiens)” had an overall disease activity in the series on Salmonella-infected mice of 29%. Moreover, in the series with CD patient-derived PBMCs, the T-cell cytokine secretion entry is given as “did not affect”.

For the origin of these results see US20230405078A1, “DETECTION AND TREATMENT OF INTESTINAL FIBROSIS” (THE REGENTS OF THE UNIVERSITY OF CALIFORNIA, priority 2020, published 2023).
